Test results taken from paper doi:10.1101/2021.01.13.426511.

Target: phospho His-cSrcKD-K295M/Y416F (human)
Test: BLI

Kd | kon | Substance
34 µM | 998 M⁻¹ s⁻¹ | rPTPεD1-C335S (D1 domain of receptor protein tyrosine phosphatase epsilon, substrate-trapping mutant) (domain or fragment)
257 µM | 128 M⁻¹ s⁻¹ | rPTPεD1-C335S/R220E (domain or fragment)
